# B1: Rab guanine nucleotide exchange factor SEC2 (Saccharomyces cerevisiae), P17065 (parent)
# chain: MDASEEAKRVSIQVTSLSTQLIESVDKQSHLEEQLNKSLKTIASQKAAIENYNQLKEDYNTLKRELSDRDDEVKRLREDIAKENELRTKAEEEADKLNKEVEDLTASLFDEANNMVADARKEKYAIEILNKRLTEQLREKDTLLDTLTLQLKNLKKVMHSLDNESTVTNNSNRYSTILSDSATSSSTSLNKVPTSYSLASQDIYSGIVYSPSISSIRYDISLYNEFLKFVAALPRCENIKATSTESKLIRRLVNDEIQPILKIDNASGIGWLVKKTLLSLIIDGLVVVEPLSGVNATYQIGYNSSSPAKQATSNMPKMFKFPLDSPPVAVHAACSFCGESRDDIIEHARMYILKTLHKTDDGKEQVTNTYPLCHWCLLKLRQTCEIFAFLRSLKVGAWHLEKLTTQNITKEDLEKFSEVTKHTKRDGRVSSQDKKTKRLSFMAGLGINSSTKNKPKMEIFSSETNAKPGQPTTNIQRAWLQLCKLRCILHWTHIGIWAVDDSISSKIGPLVEDDSDEDQNDAISVRLQDKALWKQDAKRPFSSSSAEESQKSDAFDFESGDMENEITGESSSDESSSDGSSTDNSTADSSSEDESSLADSTTSSADSSSPESIDNGEGDDTVTKDDKSSIKSANNNEENSDCGDKKGRSIIKKKAPQRKIQKKKLLQDLDDLEEQFREESAIDQTEFENAESNVKQNISSKRASSGDENSKKDNNEKTLKTNLTIGDKTQEQIGENSPSSGLHASSSNDDNFDDAQEQQ
# partner: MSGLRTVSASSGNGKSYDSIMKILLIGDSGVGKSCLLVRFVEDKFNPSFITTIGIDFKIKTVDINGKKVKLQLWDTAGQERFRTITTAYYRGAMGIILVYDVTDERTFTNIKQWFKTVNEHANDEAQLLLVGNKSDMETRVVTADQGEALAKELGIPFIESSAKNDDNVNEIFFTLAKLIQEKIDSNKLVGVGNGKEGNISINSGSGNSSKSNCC
# Variants of: B1
# Details: with sec4_yeast SEC4, P07560
row,Variant,effect of a mutation on the interaction
1,E100A,disrupting interaction
2,F109A,disrupting interaction
3,L104A,disrupting interaction

# Source: IntAct's records for PubMed 17292842
